This is an account of results in publication PMC10269722, “LexR Positively Regulates the LexABC Efflux Pump Involved in Self-Resistance to the Antimicrobial Di-N-Oxide Phenazine in Lysobacter antibioticus”.

Series [1] addresses T1, LexR (Lysobacter antibioticus OH13, UniProt A0A0S2F3V0 1-384).
T1 sequence: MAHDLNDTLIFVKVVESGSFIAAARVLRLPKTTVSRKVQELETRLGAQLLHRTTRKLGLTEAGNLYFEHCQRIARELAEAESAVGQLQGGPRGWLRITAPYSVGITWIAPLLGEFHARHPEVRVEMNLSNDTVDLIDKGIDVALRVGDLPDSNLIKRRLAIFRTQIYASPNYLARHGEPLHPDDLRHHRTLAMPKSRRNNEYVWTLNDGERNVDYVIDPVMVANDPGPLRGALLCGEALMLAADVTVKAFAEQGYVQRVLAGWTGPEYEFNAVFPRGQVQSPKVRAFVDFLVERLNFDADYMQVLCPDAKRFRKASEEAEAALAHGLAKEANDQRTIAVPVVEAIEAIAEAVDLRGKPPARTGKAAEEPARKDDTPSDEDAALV
As to the kind of experiment: EMSA; EMSA (LightShift kit): 1x binding buffer, 50 ng/uL poly(dI-dC), 2.5% glycerol, 5 mM MgCl (so in the source), 0.05% NP-40, 5 fmol labeled probe in 20 uL, 30 min, room. As to conditions: protein: recombinant; tags: His6 (pET-28a, BamHI/EcoRI); chain copies: 2; label: 5' biotin; blunt.

Series [2] has as its target T1, LexR. The series can be described thus: EMSA; no myxin; EMSA (LightShift kit): 1x binding buffer, 50 ng/uL poly(dI-dC), 2.5% glycerol, 5 mM MgCl (so in the source), 0.05% NP-40, 5 fmol labeled probe in 20 uL, 30 min, room. The note with it: protein: recombinant; tags: His6 (pET-28a, BamHI/EcoRI); chain copies: 2; label: 5' biotin; blunt.
In series [3] the target is T1, LexR. The series can be described thus: competition; unlabeled competitor vs biotin-lex probe; EMSA (LightShift kit): 1x binding buffer, 50 ng/uL poly(dI-dC), 2.5% glycerol, 5 mM MgCl (so in the source), 0.05% NP-40, 5 fmol labeled probe in 20 uL, 30 min, room. The note with it: protein: recombinant; tags: His6 (pET-28a, BamHI/EcoRI); chain copies: 2; label: none; blunt.

B1: probe 1 (58 bp) (dsDNA)
DNA 1: ACTTGATTAGCCACTGATTCAGGGAATAATTGTCCCGACATCGGGCCAATGCCCTCTC
DNA 2: GAGAGGGCATTGGCCCGATGTCGGGACAATTATTCCCTGAATCAGTGGCTAATCAAGT
Take B1: the binding result in the series with LexR [1] is on record as “binds”.

B2: probe 4 (probe 3 with putative LexR site) (dsDNA)
DNA 1: GGCTCCGCGCCTGCCAGCATAATTGTTCGTTGTCTGGGGGCTAGGGCGAGACACCCGC
DNA 2: GCGGGTGTCTCGCCCTAGCCCCCAGACAACGAACAATTATGCTGGCAGGCGCGGAGCC
Take B2: the binding result with LexR [1] was “no binding”.

B3: lex probe (165 bp) (dsDNA)
DNA 1: ATGGGAGAAACGCGAATCGGGCTTGTCGGGGGCTCAACATGGCGGGGGGCCTCGTGTCGATCTGCGGCAAAGAGTAGAGAGATGGACGGCACTTGATTAGCCACTGATTCAGGGAATAATTGTCCCGACATCGGGCCAATGCCCTCTCTGCCTCCTTGAATGCCC
DNA 2: GGGCATTCAAGGAGGCAGAGAGGGCATTGGCCCGATGTCGGGACAATTATTCCCTGAATCAGTGGCTAATCAAGTGCCGTCCATCTCTCTACTCTTTGCCGCAGATCGACACGAGGCCCCCCGCCATGTTGAGCCCCCGACAAGCCCGATTCGCGTTTCTCCCAT
As to B3, the binding result with LexR [2] is given as “binds”.

B4: unlabeled lex probe (165 bp) (dsDNA)
DNA 1: ATGGGAGAAACGCGAATCGGGCTTGTCGGGGGCTCAACATGGCGGGGGGCCTCGTGTCGATCTGCGGCAAAGAGTAGAGAGATGGACGGCACTTGATTAGCCACTGATTCAGGGAATAATTGTCCCGACATCGGGCCAATGCCCTCTCTGCCTCCTTGAATGCCC
DNA 2: GGGCATTCAAGGAGGCAGAGAGGGCATTGGCCCGATGTCGGGACAATTATTCCCTGAATCAGTGGCTAATCAAGTGCCGTCCATCTCTCTACTCTTTGCCGCAGATCGACACGAGGCCCCCCGCCATGTTGAGCCCCCGACAAGCCCGATTCGCGTTTCTCCCAT
With B4, in the series with LexR [3], the binding result is reported as “binds”.

B5: control probe (158 bp) (dsDNA)
DNA 1: ATGCGCCTCGCGATCAACACGGTCGCATCCCCTCTTTGCCAGCCACGGCTCCGCGCCTGCCAGCTTCTTTTTTCGTTGTCTGGGGGCTAGGGCGAGACACCCGCATACCGATGACTTCGTCGGCAGTGGCCCAAGACGGATTGCGTAGTGCGCCTACG
DNA 2: CGTAGGCGCACTACGCAATCCGTCTTGGGCCACTGCCGACGAAGTCATCGGTATGCGGGTGTCTCGCCCTAGCCCCCAGACAACGAAAAAAGAAGCTGGCAGGCGCGGAGCCGTGGCTGGCAAAGAGGGGATGCGACCGTGTTGATCGCGAGGCGCAT
As to B5, the binding result with LexR [1] is listed as “no binding”.

B6: probe 2 (50 bp, 8-bp site deleted) (dsDNA)
DNA 1: ACTTGATTAGCCACTGATTCAGGGACCCGACATCGGGCCAATGCCCTCTC
DNA 2: GAGAGGGCATTGGCCCGATGTCGGGTCCCTGAATCAGTGGCTAATCAAGT
Regarding B6, in the series with LexR [1], the binding result is recorded as “no binding”.
